The source of these data is patent publication US20230139700A1 (BIO THERA SOLUTIONS, published 2023).

As usually defined, the EC50 is the concentration giving half of the maximal effect. Usually EC50 (read off the curve) stands for the midpoint of the concentration-response curve.

One test deals with T1, cynomolgus monkey OX40 (cynomolgus monkey).
T1 chain: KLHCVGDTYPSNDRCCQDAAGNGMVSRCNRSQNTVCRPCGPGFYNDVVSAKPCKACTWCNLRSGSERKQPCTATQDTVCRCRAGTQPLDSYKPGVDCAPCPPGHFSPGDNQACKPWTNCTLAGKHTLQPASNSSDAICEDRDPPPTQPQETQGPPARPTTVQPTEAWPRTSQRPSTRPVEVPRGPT
As to the kind of experiment: ELISA, OX40 coated at 2 µg/mL, antibody 2-fold dilutions. On the procedure: (§1) The binding capacities of the antibody M-KF for human and cynomolgus monkey OX40 were determined by ELISA. The test method is as follows: human or cynomolgus monkey OX40 was coated on a plate and incubated overnight at 4° C. at a concentration of 2 μg/mL, and then incubated with antibody M-KF at different concentrations for detection. The antibody M-KF was 2-fold diluted in gradient from an initial concentration of 1 μg/mL or 2 μg/mL.
In general terms: An ELISA detects its analyte on a solid surface through an enzyme-linked reagent.

For test [1], the target named is T2, human OX40 on cells (human, UniProt P43489 29-277).
T2 construct: whole, on cells; the cell is named under assay; also called hOX40; Jurkat-hOX40 cells
T2 sequence (looked up): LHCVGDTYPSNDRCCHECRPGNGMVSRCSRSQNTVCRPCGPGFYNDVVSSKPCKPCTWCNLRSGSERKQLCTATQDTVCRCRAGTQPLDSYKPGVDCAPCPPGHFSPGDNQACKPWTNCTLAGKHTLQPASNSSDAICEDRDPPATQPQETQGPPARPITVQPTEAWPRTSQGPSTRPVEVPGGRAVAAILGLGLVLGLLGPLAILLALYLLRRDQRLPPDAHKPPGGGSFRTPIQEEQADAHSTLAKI
The test is described as follows: flow cytometry (MFI) on Jurkat cells overexpressing OX40, antibody titration. The source says:
(§2) Table 10 illustrates the CDRs of eight full antibodies containing these amino acid mutations, and the rest of the sequences are the same as those of antibody-F23-32K. […] The sequences of the anti-OX40 antibody (antibody M) are shown in Table 12; wherein, the expression cells used for the antibodies above (including antibody M) are CHO-S cells, and the method for preparing the antibody M-KF is as follows: the antibody M was identical to the antibody M-KF in terms of amino acid sequence and was expressed by the CHO cell line in which the fut8 gene was knocked out (the content of fucose in antibody M-KF was about 0%).
On the technique in general: In flow cytometry, cells or beads pass a laser one at a time.

Test [2] has as its target T2, human OX40 on cells. The test is described as follows: cell-based or functional assay.
The target of test [3] is T3, human OX40 (coated on the plate, Example 8) (human, UniProt P43489 29-214).
T3 sequence (looked up): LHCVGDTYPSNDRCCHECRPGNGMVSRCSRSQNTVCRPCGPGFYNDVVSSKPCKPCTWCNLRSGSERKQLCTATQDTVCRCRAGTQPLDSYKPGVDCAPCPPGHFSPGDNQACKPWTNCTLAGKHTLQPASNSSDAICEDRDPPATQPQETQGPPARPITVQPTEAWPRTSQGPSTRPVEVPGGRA
As to the kind of experiment: ELISA, OX40 coated at 2 µg/mL, antibody 2-fold dilutions; human OX40, not cynomolgus monkey OX40. On the procedure: as §1

Test [4] addresses T2, human OX40 on cells. As to the kind of experiment: flow cytometry (MFI) on Jurkat cells overexpressing OX40, antibody titration; the unit nM comes from the legend paragraph 95.
Description: as §2

B1: Antibody M-KF (antibody, human IgG1, kappa, V domains shown)
VH: QVQLVESGGGVVQPGESLRLSCAASGFTFSSYGMHWVRQAPGKGLEWVAVIWEDGSNQYYADSVKGRFTISRDNSKNTLYLQMNSLRAEDTAVYYCAKDNQDTSPDVGIDYWGQGTLVTVSS
VL: DIQMTQSPSSLSASVGDRVTITCRASQNISPFLNWYQQKPGKAPKLLIYAAVGLQSGVPSRFSGSGSGTDFTLTISSLQPEDFATYYCQQYTDYPLTFGGGTKVEIKR
modifications: fucose content about 0% (expressed in a CHO cell line with the fut8 gene knocked out)
B1 returned an EC50 with cynomolgus monkey OX40 of around 0.0352 ng/mL. In the test with human OX40 on cells [1], the “EC50 (read off the curve)” value is around 1 nM. For the same molecule, in the test with human OX40 on cells [2], the “ADCC killing, fold against antibody M” value is above 2 fold; the “EC50 of ADCC killing, PBMC effector cells against Jurkat-hOX40 target cells (25:1)” value was around 1.89 ng/mL; the “NFκB reporter in Jurkat-hOX40-NFκB-2 cells with Raji cells, activation peak against 11D4” value was around 2.5 fold. In addition, the EC50 in test [3] is around 0.034 ng/mL. The molecule also gave an EC50 with human OX40 on cells [4] of 1.34 nM.
